Source: patent publication US20250109190A1 (BYOMASS, published 2025)
Positions count from the first letter of the chain named.

T1: Activin B (UniProt P09529 293-407)
T1 sequence (looked up): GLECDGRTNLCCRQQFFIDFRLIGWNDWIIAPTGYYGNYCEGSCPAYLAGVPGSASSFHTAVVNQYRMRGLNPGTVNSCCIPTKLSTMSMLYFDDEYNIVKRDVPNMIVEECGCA

T2: BMP9 (UniProt Q9UK05 320-429)
T2 sequence (looked up): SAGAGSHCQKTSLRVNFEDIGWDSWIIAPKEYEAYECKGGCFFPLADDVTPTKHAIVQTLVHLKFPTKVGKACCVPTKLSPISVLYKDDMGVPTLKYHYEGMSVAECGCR

T3: BMP10 (UniProt O95393 317-424)
T3 sequence (looked up): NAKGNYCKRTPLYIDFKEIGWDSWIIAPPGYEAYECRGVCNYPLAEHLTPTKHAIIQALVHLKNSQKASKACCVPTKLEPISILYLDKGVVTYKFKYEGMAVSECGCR

T4: GDF15 Fc (UniProt Q99988 197-308, limits assumed)
T4 construct: species not given; not shown: Fc part of the fusion
T4 sequence (looked up): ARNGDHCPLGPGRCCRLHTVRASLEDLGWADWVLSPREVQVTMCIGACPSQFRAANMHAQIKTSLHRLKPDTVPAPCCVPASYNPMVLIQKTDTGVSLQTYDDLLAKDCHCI

T5: human GDNF (human, UniProt P39905 78-211, limits assumed)
T5 sequence (looked up): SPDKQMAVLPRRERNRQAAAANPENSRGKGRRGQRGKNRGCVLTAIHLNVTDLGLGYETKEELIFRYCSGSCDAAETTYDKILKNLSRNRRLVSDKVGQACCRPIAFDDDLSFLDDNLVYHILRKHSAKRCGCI

T6: human GDF10 (human, UniProt P55107 369-478)
T6 sequence (looked up): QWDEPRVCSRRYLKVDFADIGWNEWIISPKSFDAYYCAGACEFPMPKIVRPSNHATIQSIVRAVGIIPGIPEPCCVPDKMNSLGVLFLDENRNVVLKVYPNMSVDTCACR

B1: Antibody O (Clone O), IgG (antibody, V domains shown)
VH: QVQLVQSGAEVKKPGSSVKVSCKASGGTFSNYDINWVRQAPGQGLEWMGGIIPVFGTAAYAQKFQGRVTITADESTSTAYMELSSLRSEDTAVYYCAREARDGYRYAFQHWGQGTLVTVSS
VL: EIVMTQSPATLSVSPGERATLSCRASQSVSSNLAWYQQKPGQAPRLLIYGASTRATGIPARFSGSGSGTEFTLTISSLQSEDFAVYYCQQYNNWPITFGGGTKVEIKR
notes: IgG
B2: Antibody A (Clone A), IgG (antibody, V domains shown)
VH: QVQLVQSGAEVKKPGASVKVSCKASGYTFTGYYMHWVRQAPGQGLEWMGSINPSSGGTNYAQKFQGRVTMTTDTSTSTAYMELRSLRSDDTAVYYCARARDIAAAGLGAFDYWGQGTLVTVSS
VL: EIVLTQSPGTLSLSPGERATLSCRASQSVRSSYLAWYQQKPGQAPRLLIYGASSRATGIPDRFSGSGSGTDFTLTISRLEPEDFAVYYCQQYVSYPRTFGGGTKVEIKR
notes: IgG
B3: Antibody G (Clone G), IgG (antibody, V domains shown)
VH: B2 VH with G31S, M34I, S50A, N52Y, P53A, S54Y, G57D, F64L
VL: B2 VL with V93S, S94N
notes: IgG
B4: Antibody M (Clone M), IgG (antibody, V domains shown)
VH: QLQLQESGPGLVKPSETLSLTCTVSGGSISSSDYYWGWIRQPPGKGLEWIGSIYYPANTYYNPSLKSRVTISVDTSKNQFSLKLSSVTAADTAVYYCARGYWNYGMDVWGQGTTVTVSS
VL: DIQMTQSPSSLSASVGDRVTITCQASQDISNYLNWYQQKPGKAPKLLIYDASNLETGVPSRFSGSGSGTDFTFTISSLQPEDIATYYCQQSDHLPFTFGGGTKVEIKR
notes: IgG
B5: Antibody N (Clone N), IgG (antibody, V domains shown)
VH: B4 VH with N58S
VL: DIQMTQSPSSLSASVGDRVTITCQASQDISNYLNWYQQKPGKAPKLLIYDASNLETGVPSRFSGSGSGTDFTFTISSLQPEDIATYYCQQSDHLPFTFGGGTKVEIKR
notes: IgG
B6: Antibody P (Clone P), IgG (antibody, V domains shown)
VH: QVQLVQSGAEVKKPGSSVKVSCKASGGTFDDYAISWVRQAPGQGLEWMGGIIPRFGIANYAQKFQGRVTITADESTSTAYMELSSLRSEDTAVYYCARPPSSGSDWGQGTLVTVSS
VL: DIQMTQSPSSVSASVGDRVTITCRASQGIDSWLAWYQQKPGKAPKLLIYAASSLQSGVPSRFSGSGSGTDFTLTISSLQPEDFATYYCQQVHSFPITFGGGTKVEIKR
notes: IgG
B7: Antibody L (Clone L), IgG (antibody, V domains shown)
VH: QVQLQESGPGLVKPSETLSLTCAVSGYSISSGYYWGWIRQPPGKGLEWIGSIYHSGSTYYNPSLKSRVTISVDTSKNQFSLKLSSVTAADTAVYYCAREAGSGYWYLSVYGMDVWGQGTTVTVSS
VL: EIVLTQSPATLSVSPGERATLSCRASQSVSSNLAWYQQKPGQAPRLLIYGASTRATGIPARFSGSGSGTEFTLTISSLQSEDFAVYYCQQSDDWPWTFGGGTKVEIKR
notes: IgG
B8: Antibody F (Clone F), IgG (antibody, V domains shown)
VH: B2 VH with Y33H, M34I, A40V, S50V, N52S, P53A, S54Y, G57D, F64L, A105L
VL: B7 VL with T53D, Q89I, S91Y, D92S, D93N, W94Y, W96R
notes: IgG
B9: Antibody C (Clone C), IgG (antibody, V domains shown)
VH: B2 VH with T30P, Y33H, S50V, G57D, T72R, T76I, R84S, S85R, A105L
VL: B2 VL with R30S, T57G, S94A
notes: IgG
B10: Antibody B (Clone B), IgG (antibody, V domains shown)
VH: B2 VH with T30I, Y33D, S50V, T72R, T76I, R84S, S85R, A105L
VL: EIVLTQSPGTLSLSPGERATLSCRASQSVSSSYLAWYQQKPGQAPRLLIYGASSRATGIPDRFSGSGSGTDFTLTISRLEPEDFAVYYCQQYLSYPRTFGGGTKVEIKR
notes: IgG
B11: Antibody D (Clone D), IgG (antibody, V domains shown)
VH: B2 VH with T30F, Y33S, S50V, G57D, T72R, T76I, R84S, S85R, A105L
VL: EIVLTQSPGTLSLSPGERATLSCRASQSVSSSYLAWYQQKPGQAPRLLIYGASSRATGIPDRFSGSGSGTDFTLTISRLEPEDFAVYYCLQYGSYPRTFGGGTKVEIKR
notes: IgG
B12: Antibody H (Clone H), IgG (antibody, V domains shown)
VH: B2 VH with Y33H, M34I, S50H, N52S, P53A, S54Y, G57T, F64L
VL: B2 VL with V93S, S94N
notes: IgG
B13: Antibody E (Clone E), IgG (antibody, V domains shown)
VH: B2 VH with T30H, Y33N, S54Y, G57Y, N59I, T72R, T76I, R84S, S85R
VL: B2 VL
notes: IgG

The binders below were run against T1, Activin B (assay: BLI Octet; IgG, avid).

binding result | Binder
no binding (tested: 100 nM) | B1
no binding (tested: 100 nM) | B2
no binding (tested: 100 nM) | B3

These binders were tested against T2, BMP9 (assay: BLI Octet; IgG, avid).

binding result | Binder
no binding (tested: 100 nM) | B4
no binding (tested: 100 nM) | B5
no binding (tested: 100 nM) | B6
no binding (tested: 100 nM) | B1
no binding (tested: 100 nM) | B7
no binding (tested: 100 nM) | B2
no binding (tested: 100 nM) | B8
no binding (tested: 100 nM) | B9
no binding (tested: 100 nM) | B10
no binding (tested: 100 nM) | B3
no binding (tested: 100 nM) | B11
no binding (tested: 100 nM) | B12
no binding (tested: 100 nM) | B13

What follows are binders tested against T3, BMP10 (assay: BLI Octet; IgG, avid).

binding result | Binder
no binding (tested: 100 nM) | B4
no binding (tested: 100 nM) | B5
no binding (tested: 100 nM) | B6
no binding (tested: 100 nM) | B1
no binding (tested: 100 nM) | B7
no binding (tested: 100 nM) | B2
no binding (tested: 100 nM) | B8
no binding (tested: 100 nM) | B9
no binding (tested: 100 nM) | B10
no binding (tested: 100 nM) | B3
no binding (tested: 100 nM) | B11
no binding (tested: 100 nM) | B12
no binding (tested: 100 nM) | B13

The binders below were run against T4, GDF15 Fc (assay: BLI Octet; IgG, avid).

binding result | Binder
no binding (tested: 100 nM) | B4
no binding (tested: 100 nM) | B5
no binding (tested: 100 nM) | B6
no binding (tested: 100 nM) | B1
no binding (tested: 100 nM) | B7
no binding (tested: 100 nM) | B2
no binding (tested: 100 nM) | B8
no binding (tested: 100 nM) | B9
no binding (tested: 100 nM) | B10
no binding (tested: 100 nM) | B3
no binding (tested: 100 nM) | B11
no binding (tested: 100 nM) | B12
no binding (tested: 100 nM) | B13

Each binder was assayed against T5, human GDNF (assay: BLI Octet; IgG, avid).

binding result | Binder
no binding (tested: 100 nM) | B4
no binding (tested: 100 nM) | B5
no binding (tested: 100 nM) | B6
no binding (tested: 100 nM) | B1
no binding (tested: 100 nM) | B7
no binding (tested: 100 nM) | B2
no binding (tested: 100 nM) | B8
no binding (tested: 100 nM) | B9
no binding (tested: 100 nM) | B10
no binding (tested: 100 nM) | B3
no binding (tested: 100 nM) | B11
no binding (tested: 100 nM) | B12
no binding (tested: 100 nM) | B13

The binders below were run against human GDF8 (human, UniProt O14793 267-375) (assay: BLI Octet; IgG, avid).

binding result | Binder
no binding (tested: 100 nM) | B4
no binding (tested: 100 nM) | B5
no binding (tested: 100 nM) | B6
no binding (tested: 100 nM) | B1
no binding (tested: 100 nM) | B7
no binding (tested: 100 nM) | B2
no binding (tested: 100 nM) | B8
no binding (tested: 100 nM) | B9
no binding (tested: 100 nM) | B10
no binding (tested: 100 nM) | B3
no binding (tested: 100 nM) | B11
no binding (tested: 100 nM) | B12
no binding (tested: 100 nM) | B13

The binders below were run against T6, human GDF10 (assay: BLI Octet; IgG, avid).

binding result | Binder
no binding (tested: 100 nM) | B4
no binding (tested: 100 nM) | B5
no binding (tested: 100 nM) | B6
no binding (tested: 100 nM) | B1
no binding (tested: 100 nM) | B7
no binding (tested: 100 nM) | B2
no binding (tested: 100 nM) | B8
no binding (tested: 100 nM) | B9
no binding (tested: 100 nM) | B10
no binding (tested: 100 nM) | B3
no binding (tested: 100 nM) | B11
no binding (tested: 100 nM) | B12
no binding (tested: 100 nM) | B13

The binders below were run against human GDF11 (human, UniProt O95390 299-407) (assay: BLI Octet; IgG, avid).
Chain of human GDF11 (O95390 299-407 limits assumed): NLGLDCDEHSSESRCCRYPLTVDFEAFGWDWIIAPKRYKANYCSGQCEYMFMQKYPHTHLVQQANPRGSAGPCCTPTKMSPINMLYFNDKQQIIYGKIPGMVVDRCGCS

binding result | Binder
no binding (tested: 100 nM) | B4
no binding (tested: 100 nM) | B5
no binding (tested: 100 nM) | B6
no binding (tested: 100 nM) | B1
no binding (tested: 100 nM) | B7
no binding (tested: 100 nM) | B2
no binding (tested: 100 nM) | B3
no binding (tested: 100 nM) | B12
